Consider two molecules from publication PMC11086168, “Combining the Benefits of Biotin–Streptavidin Aptamer Immobilization with the Versatility of Ni-NTA Regeneration Strategies for SPR”.

For series [1], the target named is T1, 6xHis-streptavidin (His-SA) (UniProt P22629 25-183). Nature of the series: EMSA; no biotin; 1 µM 29mer; LSPR on Ni-NTA chip with His-SA capture; sample buffer PBS-T (1X PBS, 0.05% Tween 20); immobilization in PBS-T or PBS-I (1X PBS, 300 mM NaCl total, pH 8.0); 20. The conditions noted are these: protein: commercial; tags: 6xHis; chain copies: 4. On the technique in general: Mobility shift assays separate free from complexed probe on a gel.
T1 sequence (P22629 25-183): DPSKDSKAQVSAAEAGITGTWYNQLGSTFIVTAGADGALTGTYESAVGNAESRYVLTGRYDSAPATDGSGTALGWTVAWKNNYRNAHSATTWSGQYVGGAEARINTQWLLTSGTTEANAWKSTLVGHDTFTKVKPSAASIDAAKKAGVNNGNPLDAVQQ

The target in series [2] is T1, 6xHis-streptavidin (His-SA). Nature of the series: EMSA; binding through 5' biotin; LSPR on Ni-NTA chip with His-SA capture; sample buffer PBS-T (1X PBS, 0.05% Tween 20); immobilization in PBS-T or PBS-I (1X PBS, 300 mM NaCl total, pH 8.0); 20. The conditions noted are these: protein: commercial; tags: 6xHis; chain copies: 4; label: 5' biotin.
The target in series [3] is T2, thrombin (human plasma, UniProt P00734;P00734 328-363;364-622). Briefly: SPR (LSPR); Experiment 7; surface immobilized in PBS-I; printed as KA from Hill fit; BSA present; LSPR on Ni-NTA chip with His-SA capture; sample buffer PBS-T (1X PBS, 0.05% Tween 20); immobilization in PBS-T or PBS-I (1X PBS, 300 mM NaCl total, pH 8.0); 20.
In series [4] the target is T2, thrombin. Nature of the series: SPR (LSPR); Experiment 8; reused surface of Experiment 7, no new immobilization; printed as KA from Hill fit; BSA present; LSPR on Ni-NTA chip with His-SA capture; sample buffer PBS-T (1X PBS, 0.05% Tween 20); immobilization in PBS-T or PBS-I (1X PBS, 300 mM NaCl total, pH 8.0); 20.
The target in series [5] is T2, thrombin. Nature of the series: SPR (LSPR); Experiment 1; PBS-T; printed as KA from Hill fit (half-saturation, in nM); aptamer immobilized on His-SA/Ni-NTA; BSA present; LSPR on Ni-NTA chip with His-SA capture; sample buffer PBS-T (1X PBS, 0.05% Tween 20); immobilization in PBS-T or PBS-I (1X PBS, 300 mM NaCl total, pH 8.0); 20.

In general, Kd refers to the constant that tells how readily two partners part at equilibrium. A high value points to weaker binding.

In the case of AGTCCGTGGTAGGGCAGGTTGGGGTGACT (structured_DNA) [unlabeled 29mer], the binding result in series [1] is reported as “no binding”.

Take AGTCCGTGGTAGGGCAGGTTGGGGTGACT (structured_DNA, 5' biotin (5Biosg)) [B-29mer (biotinylated thrombin-binding aptamer)]: the binding result in series [2] is recorded as “binds”. In addition, the Kd stood at 18.6 nM in series [3], 10.3 nM in series [4] and 31.2 nM in series [5].
